For the experiment, the target named is Transportin-1 (TNPO1) (UniProt Q92973). The experiment can be described thus: ITC; MicroCal VP-ITC, 28 injections of 8 µl at 25°C; 50 mM Tris-HCl pH 7.5, 150 mM NaCl, 5 mM TCEP, 0.04% NaN3; standard one-site model; which protein was in the syringe is not given.

This passage reports Kd results from publication PMC8562343.

A word on the Kd: it is the constant that tells how readily two partners part at equilibrium. A low value points to tighter binding.

UniProt Q92973, sequence (Q92973 whole entry): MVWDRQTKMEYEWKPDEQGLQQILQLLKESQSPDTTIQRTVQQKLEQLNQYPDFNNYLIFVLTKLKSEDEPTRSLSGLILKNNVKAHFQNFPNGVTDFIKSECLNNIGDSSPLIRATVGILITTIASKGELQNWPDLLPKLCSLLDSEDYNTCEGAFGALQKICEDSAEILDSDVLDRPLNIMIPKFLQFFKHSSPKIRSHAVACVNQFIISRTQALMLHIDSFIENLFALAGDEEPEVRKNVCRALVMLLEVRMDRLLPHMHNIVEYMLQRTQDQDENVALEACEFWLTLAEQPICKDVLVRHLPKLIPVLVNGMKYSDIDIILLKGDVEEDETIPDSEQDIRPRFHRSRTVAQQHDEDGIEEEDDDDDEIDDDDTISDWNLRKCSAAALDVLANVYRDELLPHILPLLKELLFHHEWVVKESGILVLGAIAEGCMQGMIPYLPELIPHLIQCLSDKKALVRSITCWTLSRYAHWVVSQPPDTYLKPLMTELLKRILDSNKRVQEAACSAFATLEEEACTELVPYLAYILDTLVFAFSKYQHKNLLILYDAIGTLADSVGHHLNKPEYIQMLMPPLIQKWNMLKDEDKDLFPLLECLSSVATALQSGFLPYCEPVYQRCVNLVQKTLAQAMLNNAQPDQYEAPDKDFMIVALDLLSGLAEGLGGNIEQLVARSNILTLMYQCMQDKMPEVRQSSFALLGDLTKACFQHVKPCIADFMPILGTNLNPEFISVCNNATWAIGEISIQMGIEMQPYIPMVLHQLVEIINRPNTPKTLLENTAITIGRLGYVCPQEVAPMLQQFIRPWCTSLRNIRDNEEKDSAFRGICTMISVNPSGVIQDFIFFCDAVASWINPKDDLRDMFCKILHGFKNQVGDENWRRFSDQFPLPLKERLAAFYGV

Consider “RG/RGG region of cold-inducible RNA-binding protein (CIRBP-RGG, amino acids 68-137) (from UniProt Q14011 68-137) (domain or fragment)”, for which the Kd turned out to be 124 nM.
